Biological target: T1, VEGF-A 121 (Peprotech), dimeric (human, UniProt P15692-9 27-147)
T1 construct: also called VEGF121
T1 sequence (looked up): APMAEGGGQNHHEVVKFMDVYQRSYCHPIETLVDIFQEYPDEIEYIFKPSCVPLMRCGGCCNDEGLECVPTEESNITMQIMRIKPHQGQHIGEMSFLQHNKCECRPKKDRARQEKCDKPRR
Test: SPR (Biacore T200), consecutive injections. VEGF-A 121 is displayed by captured rH-4.6.1-IgG (Avastin) and saturated again with rH-4.6.1-IgG. Setup as printed: rH-4.6.1-IgG*VEGF-A*rH4.6.1*Ab1*Ab2
Description: The sample buffer was the system buffer supplemented with 1 mg/ml CMD (Carboxymethyldextran, Sigma #86524). The system operated at 25° C.

B1: 13.7.40-Ru (antibody, V domains shown)
VH: QAQLQQPGAELVKPGASVNLSCKASGYTFTNYWIHWVSQRPGQGLEWIGEINPSDGRTYYNEKFKNKVILTVDEASTTAYLQLSSLTSEDSAVYYCTSRYYIYGVDYWGQGTTLTVSS
VL: SIVMTQTPKFLLVSPGDRVTITCKASQSVGHDVSWYRQKPGQSPKVLIYYASNRYTGVPDRFTGSGYGTDFTFTVRSVRTEDLAVYFCQQDYTSPLTFGTGTKLELKR
notes: Tested as a ruthenylated conjugate
binding result: binds

From US20190137523A1 (Hoffmann-La Roche, published 2019)
